Test results taken from patent publication US20200010546A1 (TRICAN BIOTECHNOLOGY, published 2020).
Where a chain is given by its changes, count along the chain named.

B1: CwP2F8 (IgG4-reformatted anti-CD47 antibody) (antibody, V domains shown)
VH: QVQLVQSGAEVKKPGSSVKVSCKASGGTFSSYAISWVRQAPGQGLEWMGRIIPILGIANYAQKFQGRVTITADKSTSTAYMELSSLRSEDTAVYYCARSLRWLHRVFDYWGQGTTVTVSS
VL: QSVLTQPASVSGSPGQSITISCTGTSSDVGGYNYVSWYQQHPGKAPKLIIFDVINRPSGVSSRFSGSKSGTSATLVITGLQTGDEADYYCGTWDNSLRAYVFGSGTNVTALG
notes: Full-length human IgG4, expressed in HEK293 cells
B2: CwP2F12 (IgG4-reformatted anti-CD47 antibody) (antibody, V domains shown)
VH: QVQLVQSGAEVKKPGASVRLSCKASGYTFSSYYMHWVRQAPGQGLVWMGTSIPTAASGSYAQKFQGRVTMTRDTSTTTVYMELSSLRSEDTAVYYCARGGRGGFDYWGQGTPVTVSS
VL: QPGLTQPPSVSKGLRRTATLTCTGNSNNVGNQGAVWLQQHQGHPPKLLSYRNNNRPSGISERFSASRSANTASLTITGLQPEDEADYYCSAWDSSLSGWVFGGGTKLTVLG
notes: as for B1
B3: CwP1C4 (IgG4-reformatted anti-CD47 antibody) (antibody, V domains shown)
VH: QVTLKESGPTLVKPTQTLTLTCTFSGLSLSTSGVGVGWIRQPPGKALEWLALIYWNDDKRYSPSLKSRLTVTKDTSKNQVVLTMTNMDPVDTATYYCAHLITFGGRRAFDIWGQGTMVTVSS
VL: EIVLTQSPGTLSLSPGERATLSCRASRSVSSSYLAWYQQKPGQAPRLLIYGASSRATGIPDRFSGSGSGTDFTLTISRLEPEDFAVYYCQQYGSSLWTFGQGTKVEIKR
notes: as for B1
B4: BrP1F11 (IgG4-reformatted anti-CD47 antibody) (antibody, V domains shown)
VH: QVQLVQSGAEVKKPGASVKISCKASGYTFTTYHIHWVRQAPGQGLEWMGVINSNAGNTGYAQNFQDRVTMTRDTSTSTVYMELRSLKSDDTAVYYCAKDPGMGWYMHHWGQGTLVTVSS
VL: NFMLTQPQSVSGSPGETVTISCTGSGGPIASNYVQWYQQRPGSVPTTVIYEDTKRPSGVPDRFSGSIDSSSNSASLTISGLKTEDEADYYCQSYESRNYVFGTGTKVSVLS
notes: Full-length human IgG4, expressed in HEK293 cells; also called BrP1F11-G4
B5: BrP1F3 (IgG4-reformatted anti-CD47 antibody) (antibody, V domains shown)
VH: QVQLVQSGAEVKKPGASVKVSCKASGYTFTSYYMHWVRQAPGQGLEWMGIINPSGGSTSYAQKFQGRVTMTRDTSTSTVYMELSSLRSEDTAVYYCARGGTLGMDVWGQGTTVTVSS
VL: SSELTQDPAVSVALGQTVRITCQGDSLRSYYASWYQQKPGQAPVLVIYGKNNRPSGIPDRFSGSSSGNTASLTITGAQAEDEADYYCNSRDSSGNHYVFGTGTKVTVLG
notes: as for B1
B6: CwP2F8 Fab (library clone) (Fab, V domains shown)
VH: B1 VH
VL: B1 VL
notes: Fab in bacterial supernatant
B7: CwP2F12 Fab (library clone) (Fab, V domains shown)
VH: B2 VH
VL: B2 VL
notes: Fab in bacterial supernatant
B8: CwP1A1 Fab (library clone) (Fab, V domains shown)
VH: B3 VH with V2I, L27F, S32R, V71I
VL: not shown
notes: Fab in bacterial supernatant
B9: CwP1C4 Fab (library clone) (Fab, V domains shown)
VH: B3 VH
VL: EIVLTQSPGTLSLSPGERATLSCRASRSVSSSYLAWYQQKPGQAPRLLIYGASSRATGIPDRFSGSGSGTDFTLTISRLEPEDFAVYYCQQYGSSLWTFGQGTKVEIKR
notes: Fab in bacterial supernatant
B10: BrP1F11 Fab (library clone) (Fab, V domains shown)
VH: B4 VH
VL: B4 VL
notes: Fab in bacterial supernatant
B11: BrP1F3 Fab (library clone) (Fab, V domains shown)
VH: B5 VH
VL: B5 VL
notes: Fab in bacterial supernatant

Target: T1, recombinant human CD47-Fc protein (R&D Systems, USA) (human, UniProt Q08722 19-139)
T1 construct: Bought from R&D Systems; also called CD47-Fc fusion protein; recombinant CD47; not shown: Fc part of the bought fusion
T1 sequence (Q08722 19-139 limits assumed): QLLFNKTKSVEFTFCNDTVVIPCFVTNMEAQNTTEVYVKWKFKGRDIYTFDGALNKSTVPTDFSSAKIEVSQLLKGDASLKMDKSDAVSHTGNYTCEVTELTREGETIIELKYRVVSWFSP
Experiment: titration ELISA on coated CD47-Fc

| EC50 | Binder |
| --- | --- |
| 0.326 nM | B1 |
| 0.441 nM | B2 |
| 0.227 nM | B3 |
| 1.21 nM | B4 |
| 10.1 nM | B5 |

Target: T2, recombinant human His-tagged SIRP-α protein (R&D Systems, USA) (human, UniProt P78324 31-370, limits assumed)
T2 construct: Bought from R&D Systems; also called signal-regulatory protein alpha; not shown: His tag
T2 sequence (P78324 31-370 limits assumed): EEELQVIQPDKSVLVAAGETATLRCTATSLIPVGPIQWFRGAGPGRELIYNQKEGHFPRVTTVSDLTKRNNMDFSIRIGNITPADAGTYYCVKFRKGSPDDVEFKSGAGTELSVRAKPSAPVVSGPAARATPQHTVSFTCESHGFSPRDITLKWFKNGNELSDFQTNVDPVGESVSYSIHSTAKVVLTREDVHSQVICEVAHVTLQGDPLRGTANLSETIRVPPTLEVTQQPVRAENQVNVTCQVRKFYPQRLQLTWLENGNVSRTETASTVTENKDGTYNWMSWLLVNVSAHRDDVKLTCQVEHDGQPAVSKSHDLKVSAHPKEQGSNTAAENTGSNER
Experiment: direct ELISA, SIRP-α coated at 1 µg/ml

| binding result | Binder |
| --- | --- |
| no binding (tested: 0.5 µg/ml) | B1 |
| no binding (tested: 0.5 µg/ml) | B2 |
| no binding (tested: 0.5 µg/ml) | B3 |
| no binding (tested: 0.5 µg/ml) | B4 |
| no binding (tested: 0.5 µg/ml) | B5 |

Target: T1, recombinant human CD47-Fc protein (R&D …)
Experiment: ELISA of Fab supernatant on coated CD47-Fc

| OD450 | Binder |
| --- | --- |
| > 0.5 OD450 | B6 |
| > 0.5 OD450 | B7 |
| > 0.5 OD450 | B8 |
| > 0.5 OD450 | B9 |
| > 0.5 OD450 | B10 |
| > 0.5 OD450 | B11 |

Target: T1, recombinant human CD47-Fc protein (R&D …)
Experiment: blocking ELISA: CD47-Fc (1 µg/ml) binding to coated His-tagged SIRP-α

| IC50 | Binder |
| --- | --- |
| 0.068 nM | B1 |
| 0.063 nM | B2 |
| 0.155 nM | B3 |
